The values below come from patent US20210301029A1 (LYVGEN BIOPHARMA, published 2021).

The target of one assay is T1, human FcγRIIB (human, UniProt P31994 43-310).
T1 construct: whole, on cells; also called CD32b; FcγR2B
T1 sequence (looked up): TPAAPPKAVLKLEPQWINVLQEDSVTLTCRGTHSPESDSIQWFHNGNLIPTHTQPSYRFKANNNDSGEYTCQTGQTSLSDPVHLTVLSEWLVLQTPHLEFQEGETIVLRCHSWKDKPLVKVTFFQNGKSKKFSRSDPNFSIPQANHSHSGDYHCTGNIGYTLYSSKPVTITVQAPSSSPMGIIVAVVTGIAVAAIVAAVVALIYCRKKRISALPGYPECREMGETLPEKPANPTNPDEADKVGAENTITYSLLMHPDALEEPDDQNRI
Kind of assay: FACS on CHO cells expressing human FcγRIIB (MFI). The method, then:
(§1) For FACS analysis of the IgG mutants' binding to different FcγRs, FcγR overexpressing CHO cells were harvested using trypsin-EDTA and were suspended in cold staining buffer (3% BSA in PBS). Test IgG mutants, which were diluted in staining buffer, were added into the cells. The mixture was incubated at 4° C. for 2 hours, and then washed twice with cold staining buffer and re-suspended in PE-labeled anti-human IgG followed by incubation at 4° C. for 2 hours. The mixture was washed twice with staining buffer and re-suspended in 2% PFA in PBS for FACS.

The target in the next assay is T2, human FcγRI (human, UniProt P12314 16-374).
T2 construct: whole, on cells; also called CD64
T2 sequence (P12314 16-374): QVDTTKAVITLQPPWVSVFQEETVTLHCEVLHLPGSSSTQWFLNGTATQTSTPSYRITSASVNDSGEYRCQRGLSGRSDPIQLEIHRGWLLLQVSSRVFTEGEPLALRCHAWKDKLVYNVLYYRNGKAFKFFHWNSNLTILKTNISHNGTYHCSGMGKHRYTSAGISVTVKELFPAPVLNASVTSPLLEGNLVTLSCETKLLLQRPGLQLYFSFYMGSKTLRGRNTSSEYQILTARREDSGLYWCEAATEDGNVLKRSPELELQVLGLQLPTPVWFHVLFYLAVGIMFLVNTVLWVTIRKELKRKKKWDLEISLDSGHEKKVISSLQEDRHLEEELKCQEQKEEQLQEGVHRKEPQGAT
Kind of assay: FACS on CHO cells expressing human FcγRI (MFI). On the procedure:
as §1

The target of another assay is T3, human FcγRIII (human, UniProt P08637 17-254).
T3 construct: whole, on cells; also called FcγRIIIA; CD16a
T3 sequence (P08637 17-254): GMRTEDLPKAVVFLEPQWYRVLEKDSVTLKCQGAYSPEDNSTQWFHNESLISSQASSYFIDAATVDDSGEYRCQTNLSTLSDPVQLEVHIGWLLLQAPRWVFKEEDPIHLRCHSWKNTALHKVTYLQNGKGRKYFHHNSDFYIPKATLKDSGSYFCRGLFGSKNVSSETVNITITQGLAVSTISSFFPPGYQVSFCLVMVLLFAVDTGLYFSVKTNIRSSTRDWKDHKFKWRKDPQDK
Kind of assay: FACS on CHO cells expressing human FcγRIIIA (MFI). On the procedure: as §1

B1: 383-huIgG1m2 (antibody)
heavy: not shown
light: DIQMTQSPSSVSASVGDRVTITCRASQGIYSWLAWYQQKPGKAPNLLIYTASTLQSGVPSRFSGSGSGTDFTLTISSLQPEDFATYYCQQANIFPLTFGGGTKVEIKRTVAAPSVFIFPPSDEQLKSGTASVVCLLNNFYPREAKVQWKVDNALQSGNSQESVTEQDSKDSTYSLSSTLTLSKADYEKHKVYACEVTHQGLSSPVTKSFNRGEC
notes: also called 383-G1m2
For the molecule B1, the binding result in the assay with human FcγRIIB is “binds”.

B2: 383-huIgG1 (antibody)
heavy chain: not shown
light chain: DIQMTQSPSSVSASVGDRVTITCRASQGIYSWLAWYQQKPGKAPNLLIYTASTLQSGVPSRFSGSGSGTDFTLTISSLQPEDFATYYCQQANIFPLTFGGGTKVEIKRTVAAPSVFIFPPSDEQLKSGTASVVCLLNNFYPREAKVQWKVDNALQSGNSQESVTEQDSKDSTYSLSSTLTLSKADYEKHKVYACEVTHQGLSSPVTKSFNRGEC
notes: anti-CD40 antibody 383 on a wild-type human IgG1 constant region
Regarding B2, the binding result in the assay with human FcγRI and with human FcγRIIB was “binds” throughout.

B3: 383-huIgG4mAA (antibody)
heavy: not shown
light: DIQMTQSPSSVSASVGDRVTITCRASQGIYSWLAWYQQKPGKAPNLLIYTASTLQSGVPSRFSGSGSGTDFTLTISSLQPEDFATYYCQQANIFPLTFGGGTKVEIKRTVAAPSVFIFPPSDEQLKSGTASVVCLLNNFYPREAKVQWKVDNALQSGNSQESVTEQDSKDSTYSLSSTLTLSKADYEKHKVYACEVTHQGLSSPVTKSFNRGEC
With B3, the binding result with human FcγRI and in the assay with human FcγRIIB was “binds” in each case.

B4: 383-huIgG4m2 (antibody)
heavy: not shown
light: DIQMTQSPSSVSASVGDRVTITCRASQGIYSWLAWYQQKPGKAPNLLIYTASTLQSGVPSRFSGSGSGTDFTLTISSLQPEDFATYYCQQANIFPLTFGGGTKVEIKRTVAAPSVFIFPPSDEQLKSGTASVVCLLNNFYPREAKVQWKVDNALQSGNSQESVTEQDSKDSTYSLSSTLTLSKADYEKHKVYACEVTHQGLSSPVTKSFNRGEC
Consider B4, for which the binding result was “binds” in the assay with human FcγRIIB and “no binding (tested: 30 µg/mL)” with human FcγRIII.

B5: 383-huIgG1m27 (antibody)
heavy: not shown
light: DIQMTQSPSSVSASVGDRVTITCRASQGIYSWLAWYQQKPGKAPNLLIYTASTLQSGVPSRFSGSGSGTDFTLTISSLQPEDFATYYCQQANIFPLTFGGGTKVEIKRTVAAPSVFIFPPSDEQLKSGTASVVCLLNNFYPREAKVQWKVDNALQSGNSQESVTEQDSKDSTYSLSSTLTLSKADYEKHKVYACEVTHQGLSSPVTKSFNRGEC
As to B5, the binding result with human FcγRIIB is “binds”.

B6: 383-huIgG2m2040 (antibody)
heavy: not shown
light: DIQMTQSPSSVSASVGDRVTITCRASQGIYSWLAWYQQKPGKAPNLLIYTASTLQSGVPSRFSGSGSGTDFTLTISSLQPEDFATYYCQQANIFPLTFGGGTKVEIKRTVAAPSVFIFPPSDEQLKSGTASVVCLLNNFYPREAKVQWKVDNALQSGNSQESVTEQDSKDSTYSLSSTLTLSKADYEKHKVYACEVTHQGLSSPVTKSFNRGEC
Regarding B6, the binding result with human FcγRI and in the assay with human FcγRIII was “no binding (tested: 30 µg/mL)” each time.

B7: 383-huIgG1mAAG (antibody)
heavy: not shown
light: DIQMTQSPSSVSASVGDRVTITCRASQGIYSWLAWYQQKPGKAPNLLIYTASTLQSGVPSRFSGSGSGTDFTLTISSLQPEDFATYYCQQANIFPLTFGGGTKVEIKRTVAAPSVFIFPPSDEQLKSGTASVVCLLNNFYPREAKVQWKVDNALQSGNSQESVTEQDSKDSTYSLSSTLTLSKADYEKHKVYACEVTHQGLSSPVTKSFNRGEC
notes: Anti-CD40 antibody 383 with Fc variant G1mAAG; also called G1mAG
B7: the binding result with human FcγRIIB and with human FcγRIII was “no binding (tested: 30 µg/mL)” each time.

B8: 383-huIgG2m43 (antibody)
heavy: not shown
light: DIQMTQSPSSVSASVGDRVTITCRASQGIYSWLAWYQQKPGKAPNLLIYTASTLQSGVPSRFSGSGSGTDFTLTISSLQPEDFATYYCQQANIFPLTFGGGTKVEIKRTVAAPSVFIFPPSDEQLKSGTASVVCLLNNFYPREAKVQWKVDNALQSGNSQESVTEQDSKDSTYSLSSTLTLSKADYEKHKVYACEVTHQGLSSPVTKSFNRGEC
In the case of B8, the binding result with human FcγRI and in the assay with human FcγRIII was “no binding (tested: 30 µg/mL)” each time.

B9: 383-huIgG4mPE (antibody)
heavy: not shown
light: DIQMTQSPSSVSASVGDRVTITCRASQGIYSWLAWYQQKPGKAPNLLIYTASTLQSGVPSRFSGSGSGTDFTLTISSLQPEDFATYYCQQANIFPLTFGGGTKVEIKRTVAAPSVFIFPPSDEQLKSGTASVVCLLNNFYPREAKVQWKVDNALQSGNSQESVTEQDSKDSTYSLSSTLTLSKADYEKHKVYACEVTHQGLSSPVTKSFNRGEC
Turning to B9, the binding result in the assay with human FcγRI and in the assay with human FcγRIIB was “binds” in each case.

B10: 383-huIgG1m49 (antibody)
heavy: not shown
light: DIQMTQSPSSVSASVGDRVTITCRASQGIYSWLAWYQQKPGKAPNLLIYTASTLQSGVPSRFSGSGSGTDFTLTISSLQPEDFATYYCQQANIFPLTFGGGTKVEIKRTVAAPSVFIFPPSDEQLKSGTASVVCLLNNFYPREAKVQWKVDNALQSGNSQESVTEQDSKDSTYSLSSTLTLSKADYEKHKVYACEVTHQGLSSPVTKSFNRGEC
As to B10, the binding result with human FcγRI and with human FcγRIIB was “binds” throughout.

B11: 383-huIgG1m45 (antibody)
heavy: not shown
light: DIQMTQSPSSVSASVGDRVTITCRASQGIYSWLAWYQQKPGKAPNLLIYTASTLQSGVPSRFSGSGSGTDFTLTISSLQPEDFATYYCQQANIFPLTFGGGTKVEIKRTVAAPSVFIFPPSDEQLKSGTASVVCLLNNFYPREAKVQWKVDNALQSGNSQESVTEQDSKDSTYSLSSTLTLSKADYEKHKVYACEVTHQGLSSPVTKSFNRGEC
Take B11: the binding result was “no binding (tested: 30 µg/mL)” in the assay with human FcγRI and “binds” with human FcγRIIB.

B12: 383-huIgG1m47 (antibody)
heavy: not shown
light: DIQMTQSPSSVSASVGDRVTITCRASQGIYSWLAWYQQKPGKAPNLLIYTASTLQSGVPSRFSGSGSGTDFTLTISSLQPEDFATYYCQQANIFPLTFGGGTKVEIKRTVAAPSVFIFPPSDEQLKSGTASVVCLLNNFYPREAKVQWKVDNALQSGNSQESVTEQDSKDSTYSLSSTLTLSKADYEKHKVYACEVTHQGLSSPVTKSFNRGEC
On to B12, for which the binding result with human FcγRI is recorded as “no binding (tested: 30 µg/mL)”; with human FcγRIIB it was “binds”.

B13: 383-huIgG4m46 (antibody)
heavy: not shown
light: DIQMTQSPSSVSASVGDRVTITCRASQGIYSWLAWYQQKPGKAPNLLIYTASTLQSGVPSRFSGSGSGTDFTLTISSLQPEDFATYYCQQANIFPLTFGGGTKVEIKRTVAAPSVFIFPPSDEQLKSGTASVVCLLNNFYPREAKVQWKVDNALQSGNSQESVTEQDSKDSTYSLSSTLTLSKADYEKHKVYACEVTHQGLSSPVTKSFNRGEC
In the case of B13, the binding result is given as “binds” in the assay with human FcγRIIB and “no binding (tested: 30 µg/mL)” with human FcγRIII.

B14: 383-huIgG1m50 (antibody)
heavy: not shown
light: DIQMTQSPSSVSASVGDRVTITCRASQGIYSWLAWYQQKPGKAPNLLIYTASTLQSGVPSRFSGSGSGTDFTLTISSLQPEDFATYYCQQANIFPLTFGGGTKVEIKRTVAAPSVFIFPPSDEQLKSGTASVVCLLNNFYPREAKVQWKVDNALQSGNSQESVTEQDSKDSTYSLSSTLTLSKADYEKHKVYACEVTHQGLSSPVTKSFNRGEC
As to B14, the binding result with human FcγRI and in the assay with human FcγRIIB was “binds” each time.

B15: 383-huIgG4m30 (antibody)
heavy: not shown
light: DIQMTQSPSSVSASVGDRVTITCRASQGIYSWLAWYQQKPGKAPNLLIYTASTLQSGVPSRFSGSGSGTDFTLTISSLQPEDFATYYCQQANIFPLTFGGGTKVEIKRTVAAPSVFIFPPSDEQLKSGTASVVCLLNNFYPREAKVQWKVDNALQSGNSQESVTEQDSKDSTYSLSSTLTLSKADYEKHKVYACEVTHQGLSSPVTKSFNRGEC
On to B15, for which the binding result with human FcγRI and in the assay with human FcγRIII was “no binding (tested: 30 µg/mL)” each time.

B16: 383-huIgG1m240 (antibody)
heavy: not shown
light: DIQMTQSPSSVSASVGDRVTITCRASQGIYSWLAWYQQKPGKAPNLLIYTASTLQSGVPSRFSGSGSGTDFTLTISSLQPEDFATYYCQQANIFPLTFGGGTKVEIKRTVAAPSVFIFPPSDEQLKSGTASVVCLLNNFYPREAKVQWKVDNALQSGNSQESVTEQDSKDSTYSLSSTLTLSKADYEKHKVYACEVTHQGLSSPVTKSFNRGEC
For the molecule B16, in the assay with human FcγRI, the binding result was “no binding (tested: 30 µg/mL)”.

B17: 383-huIgG4m40 (antibody)
heavy: not shown
light: DIQMTQSPSSVSASVGDRVTITCRASQGIYSWLAWYQQKPGKAPNLLIYTASTLQSGVPSRFSGSGSGTDFTLTISSLQPEDFATYYCQQANIFPLTFGGGTKVEIKRTVAAPSVFIFPPSDEQLKSGTASVVCLLNNFYPREAKVQWKVDNALQSGNSQESVTEQDSKDSTYSLSSTLTLSKADYEKHKVYACEVTHQGLSSPVTKSFNRGEC
B17: the binding result with human FcγRIIB and in the assay with human FcγRIII was “no binding (tested: 30 µg/mL)” in each case.
